Test results from paper PMC10175485, “Detecting recurrent passenger mutations in melanoma by targeted UV damage sequencing”.

Biological target: T1, ETS1 DNA-binding domain (Ets-1 ΔN280) (Mus musculus (murine), UniProt P27577 281-440, del1-280)
T1 sequence: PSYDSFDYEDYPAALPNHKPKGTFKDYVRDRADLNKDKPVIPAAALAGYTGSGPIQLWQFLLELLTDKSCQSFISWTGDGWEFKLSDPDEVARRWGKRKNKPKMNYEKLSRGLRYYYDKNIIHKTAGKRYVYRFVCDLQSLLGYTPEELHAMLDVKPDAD
Assay: EMSA; not stated in the material (as described previously, ref 25)
Details: protein: recombinant; tags: C-terminal His6 removed by thrombin; label: 5' 32P on strand 1 (STK19-RVS); 5' biotin on strand 2 (STK19-FWD); blunt

B1: STK19 D89 oligonucleotide (STK19-RVS/STK19-FWD) (dsDNA)
DNA 1: CCTGAAAATAGGGTCTTCCGGCGCAGAGCA
DNA 2: TGCTCTGCGCCGGAAGACCCTATTTTCAGG
  binding result: binds
